In US20110014125:

Key:
[1] = system: Fe/Fe3O4 nanoparticle-TCPP assemblies featuring the urokinase cleavage sequence
[2] = system: T1, oligopeptide SRSRSRSRSRSGRSAGGGC (SEQ ID NO: 18) as spacer between a pyrene fluorophore and a coumarin acceptor
T1 sequence: SRSRSRSRSRSGRSAGGGC

[3] = system: T2, oligopeptide CGGGSGRSAGGGC (SEQ ID NO: 35) tethering Zn-TCPP and TCPP porphyrins to a stealth-protected Fe/Fe3O4 nanoparticle
T2 sequence: CGGGSGRSAGGGC

[4] = system: T3, oligopeptide CGGGSGRSAGGGC (SEQ ID NO: 35) linking two gold nanoparticles (Au-Au nanoparticle assembly)
T3 sequence: CGGGSGRSAGGGC

urokinase
cleavage rate (rate constant k from TCPP luminescence at 656 nm vs. time) [1]: the cleavage rate increases by 3-5 times per order of magnitude of increase in urokinase concentration
coumarin emission (FRET from pyrene, excitation 280 nm) over 0-15 minutes [2]: The coumarin emission decreases with time
fluorescence band at 607 nm over 0-6 minutes [3]: distinct decrease of the fluorescence band at λ1=607 nm
maximum of the gold plasmon absorption (UV/Vis absorption, after 180 seconds with urokinase) [4]: shift from 523 nm to 517 nm within 180 seconds
maximum of the gold plasmon absorption (UV/Vis absorption, before cleavage) [4]: shift from 523 nm to 517 nm within 180 seconds
